Measurements from publication PMC4245140, “Towards Engineering Hormone-Binding Globulins as Drug Delivery Agents” (PLoS ONE, 2014).
Positions count from the first letter of the chain named. Names and notes keep the numbering of the source.

B1: CBG-T349R: Human CBG with P1 threonine of reactive centre loop mutated to arginine (protein, UniProt P08185 23-405, looked up, variant T349R)
Corticosteroid-binding …: MDPNAAYVNMSNHHRGLASANVDFAFSLYKHLVALSPKKNIFISPVSISMALAMLSLGTCGHTRAQLLQGLGFNLTERSETEIHQGFQHLHQLFAKSDTSLEMTMGNALFLDGSLELLESFSADIKHYYESEVLAMNFQDWATASRQINSYVKNKTQGKIVDLFSGLDSPAILVLVNYIFFKGTWTQPFDLASTREENFYVDETTVVKVPMMLQSSTISYLHDSELPCQLVQMNYVGNGTVFFILPDKGKMNTVIAALSRDTINRWSAGLTSSQVDLYIPKVTISGVYDLGDVLEEMGIADLFTNQANFSRITQDAQLKSSKVVHKAVLQLNEEGVDTAGSTGVTLNLRSKPIILRFNQPFIIMIFDHFTWSSLFLARVMNPV
B2: P1-Arg + S100C-V236C-V336I: Human CBG combining S100C-V236C disulphide and V336I on T349R background (protein, UniProt P08185 23-405, looked up, variant S100C V236C V336I T349R)
Corticosteroid-binding …: B1 Corticosteroid-binding … with S100C, V236C, V336I
B3: CBG-Trp371Ala: Human CBG with binding pocket Trp 371 mutated to alanine (protein, UniProt P08185 23-405, looked up, variant W371A)
Corticosteroid-binding …: B1 Corticosteroid-binding … with R349T, W371A
B4: CBG-Trp371Arg: Human CBG with binding pocket Trp 371 mutated to arginine (protein, UniProt P08185 23-405, looked up, variant W371R)
Corticosteroid-binding …: B1 Corticosteroid-binding … with R349T, W371R
B5: P1-Arg + V336I: Human CBG with P14 Val336Ile on T349R (P1 Arg) background, thrombin-cleavable (protein, UniProt P08185 23-405, looked up, variant V336I T349R)
Corticosteroid-binding …: B1 Corticosteroid-binding … with V336I
B6: P1-Arg + V336L: Human CBG with P14 Val336Leu on T349R (P1 Arg) background, thrombin-cleavable (protein, UniProt P08185 23-405, looked up, variant V336L T349R)
Corticosteroid-binding …: B1 Corticosteroid-binding … with V336L
B7: wild-type: Recombinant wild type human corticosteroid binding globulin expressed in E. coli (protein, UniProt P08185 23-405, looked up)
Corticosteroid-binding …: B1 Corticosteroid-binding … with R349T
modifications: expressed in E. coli
B8: P1-Arg + S100C-V236C: Human CBG with Ser100Cys/Val236Cys disulphide mutations on T349R background (PDB 4C41, cleaved) (protein, UniProt P08185 23-405, looked up, variant S100C V236C T349R)
Corticosteroid-binding …: B1 Corticosteroid-binding … with S100C, V236C
B9: P1-Arg + S100C-V236C-V336L: Human CBG combining S100C-V236C disulphide and V336L on T349R background (protein, UniProt P08185 23-405, looked up, variant S100C V236C V336L T349R)
Corticosteroid-binding …: B1 Corticosteroid-binding … with S100C, V236C, V336L
B10: TBG: Thyroxine binding globulin, hormone-carrying serpin, comparator (protein, UniProt P05543 21-415, looked up)
Thyroxine-binding globulin: ASPEGKVTACHSSQPNATLYKMSSINADFAFNLYRRFTVETPDKNIFFSPVSISAALVMLSFGACCSTQTEIVETLGFNLTDTPMVEIQHGFQHLICSLNFPKKELELQIGNALFIGKHLKPLAKFLNDVKTLYETEVFSTDFSNISAAKQEINSHVEMQTKGKVVGLIQDLKPNTIMVLVNYIHFKAQWANPFDPSKTEDSSSFLIDKTTTVQVPMMHQMEQYYHLVDMELNCTVLQMDYSKNALALFVLPKEGQMESVEAAMSSKTLKKWNRLLQKGWVDLFVPKFSISATYDLGATLLKMGIQHAYSENADFSGLTEDNGLKLSNAAHKAVLHIGEKGTEAAAVPEVELSDQPENTFLHPIIQIDRSFMLLILERSTRSILFLGKVVNPTEA

Experiments:
[1] = target: prostate specific antigen (PSA) (Homo sapiens, UniProt P07288); assay: Protease cleavage assay (SDS-PAGE) with prostate specific antigen; type: biochemical; conditions: incubation 2-72 hours
Sequence of prostate specific antigen (PSA) (P07288 25-261): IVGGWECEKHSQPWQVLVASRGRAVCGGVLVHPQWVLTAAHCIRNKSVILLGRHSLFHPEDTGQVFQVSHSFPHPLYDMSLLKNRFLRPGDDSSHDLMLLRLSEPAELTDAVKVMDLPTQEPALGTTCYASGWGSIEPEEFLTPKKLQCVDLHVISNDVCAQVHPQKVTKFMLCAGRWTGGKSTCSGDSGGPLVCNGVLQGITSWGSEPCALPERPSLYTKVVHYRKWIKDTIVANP
From the text: (§1) Reactive loop cleavage is marked by a characteristic 4 kDa change in molecular weight following release of a peptide when the R-state CBG is unfolded, such as when it is subjected to the denaturing conditions of an SDS-PAGE [14], [22]. We used this as a convenient means by which to check the engineered protein's protease specificity and, as a corollary, its site specificity.

thrombin = target: T1, thrombin (Homo sapiens, UniProt P00734); assay: Protease cleavage assay (SDS-PAGE) with thrombin; type: biochemical; conditions: protease:CBG 1:100, 37°C, half an hour
T1 construct: causes the zymogen, prothrombin, to be cleaved to produce enzymatically-active thrombin
Procedure: as §1, with “To determine if a particular target protease is able to cleave the reactive centre loop of an engineered CBG variant, the protease was incubated with CBG at a molar ratio of 1∶100 at 37°C for half an hour unless otherwise specified. Reactive” for “Reactive”

[2] = target: T2, human neutrophil elastase (Homo sapiens, UniProt P08246); assay: Protease cleavage assay (SDS-PAGE) with human neutrophil elastase; type: biochemical; conditions: protease:CBG 1:100, 37°C
T2 sequence (P08246 30-267): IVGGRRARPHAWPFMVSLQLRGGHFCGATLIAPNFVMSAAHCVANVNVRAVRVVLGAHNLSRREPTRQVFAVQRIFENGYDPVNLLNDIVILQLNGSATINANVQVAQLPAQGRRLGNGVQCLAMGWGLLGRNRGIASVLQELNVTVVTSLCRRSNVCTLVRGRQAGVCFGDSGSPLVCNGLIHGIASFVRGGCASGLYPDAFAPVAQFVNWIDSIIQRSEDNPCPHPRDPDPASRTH
Procedure: as §1, with “To determine if a particular target protease is able to cleave the reactive centre loop of an engineered CBG variant, the protease was incubated with CBG at a molar ratio of 1∶100 at 37°C for half an hour unless otherwise specified. Reactive” for “Reactive”

[3] = Fluorimetric titration (intrinsic fluorescence quenching) of CBG with cortisol; type: binding; conditions: for Kd / Fold change in Kd (cortisol) on reactive centre loop cleavage, S to R: physiological temperature (37°C); for Fold change in Kd (cortisol) on reactive centre loop cleavage, S to R: disulphide mutants in absence of TCEP
Procedure: CBG is known to bind cortisol with a one-to-one stoichiometry, [19]. Therefore, the dissociation constant, which is a measure of binding affinity, is given by the following equation: [drawing 1] (1) where [E]f is the concentration of free CBG, [L]f is the concentration of free ligand, and [E·L] is the concentration of the CBG-ligand complex.
(§2) Fluorescence spectroscopy was used to study the CBG-ligand interactions. Experiments were performed on an LS55 120V fluorescence spectrometer (Perkin Elmer), and the data were read and recorded using their proprietary FL WinLab software. For binding studies of CBG with cortisol, the excitation wavelength was set at 280 nm and the emission was detected at 350 nm, with a 315 nm cut-off filter used to prevent the excitation laser from leaching into the emission channel. For the binding studies of engineered CBG with L-T4-thyroxine-6-carboxyfluorescein, the excitation wavelength was set at 495 nm and emission was recorded at 520 nm whilst applying a 515 nm cut-off filter.
The cortisol stock solution was prepared by dissolving lyophilised cortisol (Sigma Aldrich) in 80% ethanol to make a 500 µM solution, which was then diluted with water to make solutions of 20, 40 and 80 µM, with water being used as a negative control. Aliquots of the ligand solutions were then titrated into 800 µl of a 200 nM solution of CBG made by diluting the protein stock with a buffer containing 10 mM Tris-HCl, pH 7.4, 150 mM NaCl, 1 mM EDTA, 0.1% v/v PEG 8000, and the decrease in fluorescence due to quenching was measured.
(§3) In both cases, the data were fitted using Prism 5 (GraphPad Software) to the following equation to obtain the dissociation constant, Kd: [drawing 2] (2) where ΔF is the fluorescence change, ΔFM is the maximum change in fluorescence signal, [L]t is the total concentration of ligand added and [E]t is the total protein concentration.

[4] = Biolayer interferometry of CBG on immobilised cortisol (ForteBio Octet Red); type: binding; conditions: CBG 0-10000 nM
Procedure: Biolayer interferometry was carried out on a ForteBio Octet Red apparatus (ForteBio, Menlo Park, California, USA) to determine binding affinity where fluorescence quenching experiments would not work due to mutation of Trp 371, which is the main source of intrinsic fluorescence in the binding pocket. The system uses a change in interference pattern of reflected light to detect the change in optical thickness of the sensor tip. Cortisol was immobilised on the biosensor tip surface by forming an adduct of hydrocortisone 21-hemisuccinate and a pentylamine-biotin linker through an amide bond, then allowing the biotin moiety on this cortisol adduct to bind to the streptavidin-conjugated biosensor tip. The cortisol-conjugated sensors were immersed into wells of a shaking microtitre plate containing solutions of CBG at 0, 200, 500, 1000, 2500, 5000 and 10000 nM concentrations in a 10 mM Tris-HCl, pH 7.4, 150 mM NaCl, 1 mM EDTA, 0.1 mg/ml bovine serum albumin buffer, and analysed against an internal reference.

[5] = Fluorimetric titration of L-T4-thyroxine-6-carboxyfluorescein with engineered CBG; type: binding; conditions: for Kd: 25°C
Procedure: as §2
L-T4-thyroxine-6-carboxyfluorescein was previously synthesised and purified as a 1.09 µM solution with acetonitrile as its solvent. This was diluted into a 5 nM solution with a buffer containing 10 mM Tris-HCl, pH 7.4, 150 mM NaCl, 1 mM EDTA, 0.1% v/v PEG 8000. Aliquots of the engineered CBG were titrated into 800 µl of this solution, and increments in fluorescence signal were monitored.
as §3

[6] = design: method as in PMID 23783094; conditions: recombinantly expressed wild type CBG; cited from earlier work
[7] = intact S-state, read-out: Kd for cortisol, S (uncleaved) conformation
[8] = reactive centre loop-cleaved R-state, read-out: Kd for cortisol, R (cleaved) conformation

Molecule | Kd [3, 7] | Fold change in Kd (cortisol) on reactive centre loop cleavage, S to R [3] | Kd [3, 8] | other results
SALLSSDI: CBG variant with reactive centre loop segment STGVTLNL mutated to SALLSSDI (PSA substrate) (EEGVDTAGSALLSSDITSKPII) | – | – | – | Cleavage of reactive centre loop by PSA [1]: cleavage of their respective reactive centre loops
B1 | – | – | – | Cleavage of reactive centre loop by thrombin (thrombin): same susceptibility to cleavage by thrombin as the CBG-antitrypsinPittsburgh chimera; Cleavage of reactive centre loop by thrombin (thrombin; listed as CBG-Thr349Arg): successfully cleaved by thrombin; Cleavage by human neutrophil elastase [2]: further engineering would be required to remove elastase cleavage
B2 | 297 ± 40 nM | 7.6 fold | 2260 ± 320 nM | –
B3 | – | – | – | Affinity for cortisol by biolayer interferometry [4]: no detectable affinity for cortisol
B4 | – | – | – | Affinity for cortisol by biolayer interferometry [4]: no measurable affinity for cortisol; Kd [5]: 840 nM
B5 | 326 ± 46 nM | 10 fold | 3420 ± 440 nM | –
B6 | 295 ± 44 nM | 8.2 fold | 2420 ± 200 nM | –
B7 | 279 ± 18 nM | 2.6 fold | 734 ± 48 nM | Affinity for L-thyroxine-6-carboxyfluorescein [5]: no affinity; Cleavage of reactive centre loop by thrombin (thrombin): remained unreactive; Cleavage of reactive centre loop by PSA [1]: no evidence of reactive centre loop cleavage; Fold decrease in affinity for cortisol upon cleavage of reactive centre loop [6]: 2.6 fold
B8 | 278 ± 64 nM | 6.5 fold | 1800 ± 49 nM | Change in cortisol binding affinity after reactive loop cleavage in presence of TCEP ([3]; 37°C, reducing agent TCEP present): very similar to that of wild-type CBG
B9 | 252 ± 17 nM | 6.4 fold | 1600 ± 320 nM | –
B10 | – | – | – | Kd [5]: 0.73 nM
